# IntAct's records for PubMed 25910212
# B1: Beta-crystallin A4 (Homo sapiens), P53673 (parent)
# chain: MTLQCTKSAGPWKMVVWDEDGFQGRRHEFTAECPSVLELGFETVRSLKVLSGAWVGFEHAGFQGQQYILERGEYPSWDAWGGNTAYPAERLTSFRPAACANHRDSRLTIFEQENFLGKKGELSDDYPSLQAMGWEGNEVGSFHVHSGAWVCSQFPGYRGFQYVLECDHHSGDYKHFREWGSHAPTFQVQSIRRIQQ
# partner: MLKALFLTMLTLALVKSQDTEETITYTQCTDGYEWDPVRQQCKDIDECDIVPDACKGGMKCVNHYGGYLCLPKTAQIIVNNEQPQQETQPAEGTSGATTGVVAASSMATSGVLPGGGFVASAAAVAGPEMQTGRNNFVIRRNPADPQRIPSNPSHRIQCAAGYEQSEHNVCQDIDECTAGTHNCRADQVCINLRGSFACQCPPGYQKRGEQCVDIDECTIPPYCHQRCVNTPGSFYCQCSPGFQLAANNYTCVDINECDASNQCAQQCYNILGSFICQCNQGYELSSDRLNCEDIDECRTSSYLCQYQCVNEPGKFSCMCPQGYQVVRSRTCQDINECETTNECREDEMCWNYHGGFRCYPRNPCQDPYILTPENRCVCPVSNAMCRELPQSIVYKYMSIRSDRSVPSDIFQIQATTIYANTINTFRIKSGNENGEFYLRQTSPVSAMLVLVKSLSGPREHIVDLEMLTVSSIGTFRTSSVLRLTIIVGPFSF
# B2: Emerin (Homo sapiens), P50402 (parent)
# chain: MDNYADLSDTELTTLLRRYNIPHGPVVGSTRRLYEKKIFEYETQRRRLSPPSSSAASSYSFSDLNSTRGDADMYDLPKKEDALLYQSKGYNDDYYEESYFTTRTYGEPESAGPSRAVRQSVTSFPDADAFHHQVHDDDLLSSSEEECKDRERPMYGRDSAYQSITHYRPVSASRSSLDLSYYPTSSSTSFMSSSSSSSSWLTRRAIRPENRAPGAGLGQDRQVPLWGQLLLFLVFVIVLFFIYHFMQAEEGNPF
# partner: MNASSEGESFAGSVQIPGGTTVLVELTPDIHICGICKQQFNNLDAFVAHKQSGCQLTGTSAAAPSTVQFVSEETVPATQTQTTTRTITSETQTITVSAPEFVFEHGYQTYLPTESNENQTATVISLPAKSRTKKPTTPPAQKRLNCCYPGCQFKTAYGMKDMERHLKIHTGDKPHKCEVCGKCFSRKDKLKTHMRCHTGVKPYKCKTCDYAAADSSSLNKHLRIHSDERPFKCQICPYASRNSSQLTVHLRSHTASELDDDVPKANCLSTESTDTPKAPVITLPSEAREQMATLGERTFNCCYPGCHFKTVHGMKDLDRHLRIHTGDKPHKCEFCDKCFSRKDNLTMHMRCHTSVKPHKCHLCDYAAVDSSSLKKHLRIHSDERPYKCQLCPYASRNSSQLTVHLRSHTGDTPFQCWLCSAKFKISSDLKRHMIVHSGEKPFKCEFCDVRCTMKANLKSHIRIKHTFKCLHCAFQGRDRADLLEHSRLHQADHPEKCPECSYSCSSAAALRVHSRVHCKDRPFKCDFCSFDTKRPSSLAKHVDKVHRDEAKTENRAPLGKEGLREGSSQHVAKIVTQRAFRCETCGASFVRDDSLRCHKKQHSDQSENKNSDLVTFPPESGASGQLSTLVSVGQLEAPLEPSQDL
# B3: DNA ligase 4 (Homo sapiens), P49917 (parent)
# chain: MAASQTSQTVASHVPFADLCSTLERIQKSKGRAEKIRHFREFLDSWRKFHDALHKNHKDVTDSFYPAMRLILPQLERERMAYGIKETMLAKLYIELLNLPRDGKDALKLLNYRTPTGTHGDAGDFAMIAYFVLKPRCLQKGSLTIQQVNDLLDSIASNNSAKRKDLIKKSLLQLITQSSALEQKWLIRMIIKDLKLGVSQQTIFSVFHNDAAELHNVTTDLEKVCRQLHDPSVGLSDISITLFSAFKPMLAAIADIEHIEKDMKHQSFYIETKLDGERMQMHKDGDVYKYFSRNGYNYTDQFGASPTEGSLTPFIHNAFKADIQICILDGEMMAYNPNTQTFMQKGTKFDIKRMVEDSDLQTCYCVFDVLMVNNKKLGHETLRKRYEILSSIFTPIPGRIEIVQKTQAHTKNEVIDALNEAIDKREEGIMVKQPLSIYKPDKRGEGWLKIKPEYVSGLMDELDILIVGGYWGKGSRGGMMSHFLCAVAEKPPPGEKPSVFHTLSRVGSGCTMKELYDLGLKLAKYWKPFHRKAPPSSILCGTEKPEVYIEPCNSVIVQIKAAEIVPSDMYKTGCTLRFPRIEKIRDDKEWHECMTLDDLEQLRGKASGKLASKHLYIGGDDEPQEKKRKAAPKMKKVIGIIEHLKAPNLTNVNKISNIFEDVEFCVMSGTDSQPKPDLENRIAEFGGYIVQNPGPDTYCVIAGSENIRVKNIILSNKHDVVKPAWLLECFKTKSFVPWQPRFMIHMCPSTKEHFAREYDCYGDSYFIDTDLNQLKEVFSGIKNSNEQTPEEMASLIADLEYRYSWDCSPLSMFRRHTVYLDSYAVINDLSTKNEGTRLAIKALELRFHGAKVVSCLAEGVSHVIIGEDHSRVADFKAFRRTFKRKFKILKESWVTDSIDKCELQEENQYLI
# B4: U4/U6 small nuclear ribonucleoprotein Prp31 (Homo sapiens), Q8WWY3 (parent)
# chain: MSLADELLADLEEAAEEEEGGSYGEEEEEPAIEDVQEETQLDLSGDSVKTIAKLWDSKMFAEIMMKIEEYISKQAKASEVMGPVEAAPEYRVIVDANNLTVEIENELNIIHKFIRDKYSKRFPELESLVPNALDYIRTVKELGNSLDKCKNNENLQQILTNATIMVVSVTASTTQGQQLSEEELERLEEACDMALELNASKHRIYEYVESRMSFIAPNLSIIIGASTAAKIMGVAGGLTNLSKMPACNIMLLGAQRKTLSGFSSTSVLPHTGYIYHSDIVQSLPPDLRRKAARLVAAKCTLAARVDSFHESTEGKVGYELKDEIERKFDKWQEPPPVKQVKPLPAPLDGQRKKRGGRRYRKMKERLGLTEIRKQANRMSFGEIEEDAYQEDLGFSLGHLGKSGSGRVRQTQVNEATKARISKTLQRTLQKQSVVYGGKSTIRDRSSGTASSVAFTPLQGLEIVNPQAAEKKVAEANQKYFSSMAEFLKVKGEKSGLMST
# partner: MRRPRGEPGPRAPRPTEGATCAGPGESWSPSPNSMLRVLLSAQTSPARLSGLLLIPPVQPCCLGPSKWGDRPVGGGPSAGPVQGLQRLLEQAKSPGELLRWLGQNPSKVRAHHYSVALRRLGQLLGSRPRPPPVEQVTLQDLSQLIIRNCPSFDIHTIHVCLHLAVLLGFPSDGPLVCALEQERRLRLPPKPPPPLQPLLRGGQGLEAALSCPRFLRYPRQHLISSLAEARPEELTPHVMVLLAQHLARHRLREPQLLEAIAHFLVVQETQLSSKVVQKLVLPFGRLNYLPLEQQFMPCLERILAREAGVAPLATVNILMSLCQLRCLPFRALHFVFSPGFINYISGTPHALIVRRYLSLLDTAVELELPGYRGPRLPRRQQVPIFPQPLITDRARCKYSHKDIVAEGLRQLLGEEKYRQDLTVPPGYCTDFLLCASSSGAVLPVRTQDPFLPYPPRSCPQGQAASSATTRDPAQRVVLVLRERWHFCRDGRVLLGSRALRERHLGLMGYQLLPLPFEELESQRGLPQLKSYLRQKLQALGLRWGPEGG
# B5: Phospholamban (Homo sapiens), P26678 (parent)
# chain: MEKVQYLTRSAIRRASTIEMPQQARQKLQNLFINFCLILICLLLICIIVMLL
# partner: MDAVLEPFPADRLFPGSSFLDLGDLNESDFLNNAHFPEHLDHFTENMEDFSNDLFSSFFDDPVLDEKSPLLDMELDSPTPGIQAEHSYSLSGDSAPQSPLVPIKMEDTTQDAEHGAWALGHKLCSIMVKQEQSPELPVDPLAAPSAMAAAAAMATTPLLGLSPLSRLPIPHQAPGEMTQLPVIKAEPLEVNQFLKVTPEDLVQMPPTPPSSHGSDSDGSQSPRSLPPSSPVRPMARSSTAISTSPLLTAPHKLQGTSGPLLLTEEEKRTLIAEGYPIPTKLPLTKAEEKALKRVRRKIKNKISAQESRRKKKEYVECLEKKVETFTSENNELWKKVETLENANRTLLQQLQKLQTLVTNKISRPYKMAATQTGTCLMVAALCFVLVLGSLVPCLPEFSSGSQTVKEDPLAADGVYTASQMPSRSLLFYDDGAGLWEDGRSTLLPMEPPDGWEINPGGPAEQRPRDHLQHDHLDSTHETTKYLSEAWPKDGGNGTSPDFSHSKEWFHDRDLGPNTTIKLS
# Variants of: B1
# Settings: with fbln3_human EFEMP1, Q12805
row,Variant,effect of a mutation on the interaction
1,L69P,disrupting interaction strength
2,F94S,disrupting interaction strength
3,V36M,disrupting interaction strength

# Variants of: B2
# Settings: with zf64b_human ZFP64, Q9NTW7
row,Variant,effect of a mutation on the interaction
1,P183T,with no effect
2,P183H,with no effect

# Variants of: B3
# Settings: with xrcc4_human XRCC4, Q13426
# Sequence of xrcc4_human XRCC4, Q13426 (Q13426 whole entry): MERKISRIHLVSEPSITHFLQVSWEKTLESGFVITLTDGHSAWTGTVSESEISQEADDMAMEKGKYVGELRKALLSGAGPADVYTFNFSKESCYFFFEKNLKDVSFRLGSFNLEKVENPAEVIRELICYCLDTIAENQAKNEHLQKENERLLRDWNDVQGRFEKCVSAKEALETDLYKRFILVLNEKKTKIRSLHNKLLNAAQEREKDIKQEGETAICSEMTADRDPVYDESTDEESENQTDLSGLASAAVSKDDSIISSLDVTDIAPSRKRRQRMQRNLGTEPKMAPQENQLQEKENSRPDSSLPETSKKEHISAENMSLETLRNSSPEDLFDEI
row,Variant,effect of a mutation on the interaction
1,A857T,with no effect
2,A3V,disrupting interaction strength
3,T9I,with no effect

# Variants of: B4
# Settings: with fastk_human FASTK
row,Variant,effect of a mutation on the interaction
1,L107V,with no effect

# Variants of: B5
# Settings: with cr3l1_human CREB3L1, Q96BA8
row,Variant,effect of a mutation on the interaction
1,R9C,with no effect
